# Assay: yeast display, Sf9 membrane polyspecificity reagent, FACS + sequencing; frameworks hold sequencing errors
# Method in brief: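 Galactose induction of a Saccharomyces cerevisiae BJ5465 synthetic nanobody display library ran 36–48 hours. The cells were then stained for 1 hour at 4 °C with 10% biotinylated, detergent-solubilized Sf9 membrane reagent, pulled down on streptavidin microbeads and FACS-sorted into low and high (top ~1%) gates on expression and reagent-binding fluorescence. Labels for polyreactivity follow the gate of origin.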
row,Sequence,polyreactivity (PSR sort gate)
1,QVQLVESGGGLVQAGGSLRLSCAASGFIFRNYAMGWYRQAPGKERELVAVISQRGGSTYYADSVKGRFTSSRDNAKNTVYVQMNSLKPEDTAVYYGAKRKDYNRRGYDYWGQGTQVTVSS,high polyreactivity
2,QVQLVESGGGLVQAGGSLRLSCAASGFIFRNYVMGWKRPAPGKERELVADITFSGGGTYYADSVKGRFTISRDNAKNTVYLLMNSLIPEDTAVYYCAVYWNWQYDYCGQGTQVTVSS,high polyreactivity
3,QVQLVESGGGLVQAGGSLRLSCAASGFIFRPYAMGWYRQAPGKERELVAAISYGDGITYYADSVKGRFTISRDNAKNTVYLQMNSLKPEDTAVYDCAVDSHPEEYDYWGQGTQVTVSS,low polyreactivity
4,QVQLVESGGGLVQAGGSLRLSCAASGFIFRPYAMGWYRQAPGKERELVATISYRGGSTDYADSVKGRFTISRDNAKNTVYLQMNSLKPEDTAVYYCNAGYNRGYYYPVFAFFPYEYWGQGTQVTVSS,low polyreactivity
5,QVQLVESGGGLVQAGGSLRLSCAASGFIFRQNAMGWYRQAPGKEWELVARITWNGGRTYYADSVKGRFTISRDNAKNTVYLQMHSLKPEDTAVYYCNAVYWGYGKYDYWGQGTQVTVSS,high polyreactivity
6,QVQLVESGGGLVQAGGSLRLSCAASGFIFRRNAMGWYRQAPGKERELVATIRASGGRTYYADSVKGRFTISRDNAKNTVYLQMNSLKPEDTAVYYCNKRGGYYGSPNYDYWGQGTQVTVSS,high polyreactivity
7,QVQLVESGGGLVQAGGSLRLSCAASGFIFRRYAMGWYRQAPGKERELVAAINYSGTSTYYADSVKGRFTISRDNAKNTVYLQMNSLKPEDTAVYYCNARVGYPPYDYWGQGTQVTVSS,low polyreactivity
8,QVQLVESGGGLVQAGGSLRLSCAASGFIFRRYAMGWYRQAPGKERELVAAITWNGGTTYYADSVKGRFTISRDYAKNTVYLQMNRLKPEDTAVYYCAAASRHTGSYRFYYWGQGTQVTVSS,high polyreactivity
9,QVQLVESGGGLVQAGGSLRLSCAASGFIFRRYAMGWYRQAPGKERELVARISTIGGNTFYADSVKGRFTISRDTAKNTVYLQMNSLKPEDTAVYYCATTGGPSWRKYYSWGQGTQVTVSS,high polyreactivity
10,QVQLVESGGGLVQAGGSLRLSCAASGFIFRRYAMVWYRQAPGKERELVAAISTGGSTYYADSVKGRFTISRDNAKNTVYLQMNSLKPDDTAVFYCNVKRRTYGQYRMYYWGQGTQVTVSS,low polyreactivity
11,QVQLVESGGGLVQAGGSLRLSCAASGFIFRRYTMGWYRQAPGKERELVAAISWTGGSTYYADSVKGRFTISRDNAKNTVYLQINRLKPEDTAVYYCNAVLYTPVYDGFDSWGQGTQVTVSS,high polyreactivity
12,QVQLVESGGGLVQAGGSLRLSCAASGFIFRRYVMGWTRQAPGKERELVAAISNGGGRTYYADSVKGRFTISRDNAKNTVYLQMNSLKPEDTAVYYCAAYPRGPLAPDYDYWGQGTQVTVSS,high polyreactivity
13,QVQLVESGGGLVQAGGSLRLSCAASGFIFRSYVMGWYRQSPGKERELVAAISKSGGSTYYADSVKGRFTISRDNAKTTVYLQMNSLKPEDTAVYYCAAGTTRTGYRTRYDYWGQGTQVTVSS,high polyreactivity
14,QVQLVESGGGLVQAGGSLRLSCAASGFIFRVYAMGWYRQAPGKERELVAAITRAGNTYYADSVKGRFTISRDNAMNTVYLQMNSLKPEDTAVYYCNKYHYWASPMNYWGQGTQVTVSS,high polyreactivity
15,QVQLVESGGGLVQAGGSLRLSCAASGFIFRWNAMGWYRQAPGKERELVAAITSGGGTNYADSVKGRFTISRDNAKNTVYLQMNSLKPEDTAVYYCNASYRRYSNYYKYGYWGQGTQVTVSS,high polyreactivity
16,QVQLVESGGGLVQAGGSLRLSCAASGFIFRWYAMGWYRQAPGKERELVAAITSGGSTYYADSVKGRFTISRDNAKNTVYLQMNSLKPEDTAVYYCNTYPGSRHWWYDYWGQGTQVTVSS,high polyreactivity
17,QVQLVESGGGLVQAGGSLRLSCAASGFIFRYNAMGWYRQAPGKERELVAAISSSGTTNYADSVKGRFTISRDNAKNTVYLQMNSLKPEDTAVYYCAADRRDRSPYYYWGQGTQVTVSS,high polyreactivity
18,QVQLVESGGGLVQAGGSLRLSCAASGFIFRYNPMGRYRHAPGKEREFVAAIDSGGSTYYADSVKGRFTISRDNAKNTVYLQMNSLKPEDTAVYYCNAVHEASYAGVDYWGQGTQVTVSS,low polyreactivity
19,QVQLVESGGGLVQAGGSLRLSCAASGFIFRYNPMGWYRQAPGKERELVAVITSGGRTYYADSVKGRFTISRDNAKNTVYLQMNSLKPEDTAVYYCNGDSRHRRNYDYWGQGSQVTVSS,high polyreactivity
20,QVQLVESGGGLVQAGGSLRLSCAASGFIFRYNTMGWYRQAPGKQRELVATITSGGSTYYADSVKGRFTISRDNAKNTFYLQMNSLKPEDTAVYYFAKVRDVLWRFNYWGQGTQVTVSS,high polyreactivity
21,QVQLVESGGGLVQAGGSLRLSCAASGFIFRYYAMGGYRQAPGKERELVAAISWSGVSTNYADSVKGRFTISRDNAKNTVYLQMNSLTPVDTAVYSCAADGTVRSLGRYYHWGQGTQVTVSS,low polyreactivity
22,QVQLVESGGGLVQAGGSLRLSCAASGFIFRYYAMGWSRQAPGKERELVAAISTGGSTHYADSVKGRFTISRDNAKNTVYLQMNSLKPEDTAVYYCAAPRYFRVRYGYWGQGTQVTVSS,high polyreactivity

row,Sequence,polyreactivity (PSR sort gate)
1,QVQLVESGGGLVQAGGSLRLSCAASGFIFRYYAMGWYRQAPGKEREFVAAISSSGGSTYYADSVKGRFTISRDNAKNTVYLQMNSLKPEDTAVYYCAARSRQDNFYRSYNSWGQGTQVTVSS,high polyreactivity
2,QVQLVESGGGLVQAGGSLRLSCAASGFIFRYYAMGWYRQAPGKERELFAAISWSGGTTYYADSVKGRFTISRDNAKNTVYLQMNSLKPEDTAVYYCNAGYNGKRRDPVDYWGQGTQVTVSS,low polyreactivity
3,QVQLVESGGGLVQAGGSLRLSCAASGFIFRYYAMGWYRQAPGKERELVAAISGSGGGTYYADSVKGRFTISRDNAKNTVYLQMNSLIPEDTAVYYCAATWTQPQPGYYPYYYWGQGTQVTVSS,high polyreactivity
4,QVQLVESGGGLVQAGGSLRLSCAASGFIFRYYAMGWYRQAPGKERELVAAISGSGGGTYYADSVKGRFTISRDNAKNTVYLQMNSLKPEDTAVYYCAAGSTSGYFRYYYWGQGTQVTVSS,high polyreactivity
5,QVQLVESGGGLVQAGGSLRLSCAASGFIFRYYAMGWYRQAPGKERELVAAISKRGGGTYYADSVKGRFTISRDNAKNTVYLQMNSLKPEDTAVYYCNKDGGYGTGSSREYDSWGQGTQVTVSS,high polyreactivity
6,QVQLVESGGGLVQAGGSLRLSCAASGFIFRYYAMGWYRQAPGKERELVAAISRSGGSTYYADSVKGRFTISRDNAKNTVYLQMNSLKPEDTAVYYCAALQSRSWYQFNYWGQGTQVTVSS,high polyreactivity
7,QVQLVESGGGLVQAGGSLRLSCAASGFIFRYYAMGWYRQAPGKERELVAGITRTGGRTYYADSVKGRFTISRDNAKNTVYLQMNSLKPEDTAVYYCAADQYSRWRTKEAFSEYGFDYWGQGTQVTVSS,high polyreactivity
8,QVQLVESGGGLVQAGGSLRLSCAASGFIFRYYAMGWYRQAPGKERELVASISYSGGTTYYADSVKGRFTISRDNAKNTVYLQMNSLKPEDTAVYYCNVYSRTHYQTYTDDYWGQGTQVTVSS,high polyreactivity
9,QVQLVESGGGLVQAGGSLRLSCAASGFIFRYYAMGWYTQAPGKERELVAAISYSGGSTYYADSVKGRFTITRDNAKNTVYLQMNSLKPEDTAVYYCAAVTVKSNQYLYYVYPYGMGYWGQGTQVTVSS,high polyreactivity
10,QVQLVESGGGLVQAGGSLRLSCAASGFIFRYYTMGWYRQAPGKERELVASISRRGGSTYYADSVKGRFTISRDNAKNIVYVQMNSLKEVDTAVYYCNADRRLGDGYWGQGTQVTVSS,high polyreactivity
11,QVQLVESGGGLVQAGGSLRLSCAASGFIFRYYTMGWYRQAPGKERELVATITSGGSTYYADSVKGRFTISRDNAKNTVYLQMNSLKPEDTAVYYCAKVRDVLWRFNYWGQGTQVTVSS,high polyreactivity
12,QVQLVESGGGLVQAGGSLRLSCAASGFIFRYYTMGWYRQAPGKERELVAVITSGGTTYYADSVKGRFTISRDNAKNTVYLQMNSLKPEDTAGAADQWTIHRWATYGYWGQGTQVTVSS,low polyreactivity
13,QVQLVESGGGLVQAGGSLRLSCAASGFIFRYYTMGWYRQAPGKERELVAVITSGGTTYYADSVKGRFTISRDNAKNTVYLQMNSLKPEDTAVYYCAADTFYIYEDVLYVQGDYYWGQGTQVTVSS,low polyreactivity
14,QVQLVESGGGLVQAGGSLRLSCAASGFIFSFYAMGWYRQAPGKERELVAAITSSGATTYYADSVKGRFTISRDNAKNTVYLQMNSLKPEDTAVYYCNAVYRRDTGYYRYYYWGQGTQVTVSS,high polyreactivity
15,QVQLVESGGGLVQAGGSLRLSCAASGFIFSGNAMGWYRQAPGKARELVAAISWSGTSTFYADSVKGRFTISRDNAKNTVYLQMHSLIPEDTAVYYCAAETYYSYWYRPHYDYWGQGTQVTVSS,low polyreactivity
16,QVQLVESGGGLVQAGGSLRLSCAASGFIFSGNAMGWYRQAPGKERELVAAITWSDGSTYYADSVKGRFTISRDNAKNTVYFQINSLKPEDSAVYYCAVGALQITRYDSWGQGTQVTVSS,low polyreactivity
17,QVQLVESGGGLVQAGGSLRLSCAASGFIFSGYAMGWYRQAPGKERELVATISGSGGSTYYADSVKGRFTISRDNAKNTVYLQMNSLKPEDTAVYYCNALYASSVRHKVTYDYWGQGTQVTVSS,high polyreactivity
18,QVQLVESGGGLVQAGGSLRLSCAASGFIFSHYAMGWYRQAPGKERELVAAISWSGDSTYYADSVKGRFTLSRDNAKNTVDLQMNSLKPEDTAVYYCNAVYFWVRYLKFLEFGYWGQGTQVTVSS,high polyreactivity
19,QVQLVESGGGLVQAGGSLRLSCAASGFIFSKYAMGWYRQAPGKERELVAAITGGGSTNYADSVKGRFTISRDNAKNTVYLQMTSLKPEDTAVYYCAARGFTLTDYDRDLYYWGQGTQVTVSS,low polyreactivity
20,QVQLVESGGGLVQAGGSLRLSCAASGFIFSLYAMGWYRQAPGKERELVAAINWNGGRTYYADSVKGRFTISRDNAKNTVYLQMNSLKPEDTAVYYCAKLGYLGLDYWGQGTQVTVSS,high polyreactivity
21,QVQLVESGGGLVQAGGSLRLSCAASGFIFSLYAMGWYRQAPGKERELVAAISKRGGSTNYADSVKGRFTISRDNAKNTVFLQMNSLKPEDTAVYYCAKARPGFLYDHWGQGTEVTVSS,high polyreactivity

# — the nanobody polyreactivity screen of Harvey et al. (2022)
